Reference: the supplement of paper PMC9170038

Test system: MS2 coat protein
Assay: apparent KD of MS2 coat protein; designed switch direction (-1 OFF switch, 1 ON switch): 1; higher = weaker reporter binding
How it was run: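 Designed RNA switches with common flanks were made on Illumina chips by stalled E. coli RNA polymerase. Titration with SNAP-549-labelled MS2 coat protein doubled from 0.7 or 1.5 nM up to 3 µM. Apparent KD is each design's median over clusters after curve-fitting normalised fluorescence.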

[1] = Eterna round: R95, input ligand: FMN 200 uM
[2] = Eterna round: R95, input ligand: microRNA oligo, concentration not stated
[3] = Eterna round: R95, input ligand: none
[4] = input ligand: microRNA oligo, concentration not stated

Row | Sequence | apparent KD of MS2 coat protein [1] [nM] | apparent KD of MS2 coat protein [2] [nM] | apparent KD of MS2 coat protein [3] [nM] | apparent KD of MS2 coat protein (input ligand: FMN 200 uM) [nM] | apparent KD of MS2 coat protein [4] [nM] | apparent KD of MS2 coat protein (input ligand: none) [nM]
1 | AGUCCAGCCUGAGCUGGACAAAAGCAUGUACAUGAGGAUCACCCAUGUCAUGUACAAGCUUUUUGCUCGUUUUAAAA [Zipper 46 - 13] (puzzle: Sensor for hsa-mir-208a) | 477 | 12.9 | 1010 |  |  | 
2 | AGUCCAGCCUGAGCUGGACAAAAGCAUGUACAUGAGGAUCACCCAUGUUCAUGUACAAGCUUUUUGCAAGUCAAAAU [Mat - hsa-mir-208a - Mod of JL - 80] (puzzle: Sensor for hsa-mir-208a) | 723 | 13.8 | 641 |  |  | 
3 | AGUCCAGCCUGAGCUGGACAAAAGCAUGUACAUGAGGAUCACCCAUGUUCAUGUACAAGCUUUUUGCUCGUCUUAAA [JL zipper 52] (Eterna round: R96, puzzle: Sensor for hsa-mir-208a) |  |  |  | 615 | 13.8 | 636
4 | AGUCCAGCCUGAGCUGGACAAAAGCAUGUACAUGAGGAUCACCCAUGUUCAUGUACAAGCUUUUUGCUCGUCUUAAA [salish99_208a_r3_026] (puzzle: Sensor for hsa-mir-208a) | 483 | 14.6 | 533 |  |  | 
5 | AGUCCAGCCUGAGCUGGACAAAAGCAUGUACAUGAGGAUCACCCAUGUUCAUGUACAAGCUUUUUGCUCGUCUUACC [salish99_208a_r3_079] (puzzle: Sensor for hsa-mir-208a) | 669 | 15.8 | 722 |  |  | 
6 | AGUCCAGCCUGAGCUGGACAAAAGCAUGUACAUGAGGAUCACCCAUGUUCAUGUACAAGCUUUUUGCUCGUCUUAGC [salish99_208a_r3_063] (puzzle: Sensor for hsa-mir-208a) | 837 | 14.6 | 648 |  |  | 
7 | AGUCCAGCCUGAGCUGGACAAAAGCAUGUACAUGAGGAUCACCCAUGUUCAUGUACAAGCUUUUUGCUCGUCUUAUU [salish99_208a_r3_047] (puzzle: Sensor for hsa-mir-208a) | 457 | 14.1 | 725 |  |  | 
8 | AGUCCAGCCUGAGCUGGACAAAAGCAUGUACAUGAGGAUCACCCAUGUUCAUGUACAAGCUUUUUGCUCGUCUUCAA [salish99_208a_r3_097x] (puzzle: Sensor for hsa-mir-208a) | 701 | 13.7 | 525 |  |  | 
9 | AGUCCAGCCUGAGCUGGACAAAAGCAUGUACAUGAGGAUCACCCAUGUUCAUGUACAAGCUUUUUGCUCGUCUUGCA [salish99_208a_r3_104x] (puzzle: Sensor for hsa-mir-208a) | 450 | 15 | 415 |  |  | 
10 | AGUCCUGAAAAGAAAAUACAGAGAGAUGUACAUGAGGAUCACCCAUGUCAUGUACAAGUUCUAUGCUCGUCAUAUAA [Sensorship 22 - Jieux - Sensor for hsa-mir-208a] (puzzle: Sensor for hsa-mir-208a) | 510 | 106 | 617 |  |  | 
11 | AGUCCUGAAUAAAUUAAACAGAGACAUGUACAUGAGGAUCACCCAUGUCAUGUACAAGUUCUAUGCUCGUCAUAUAA [Sensorship 19 - Jieux - Sensor for hsa-mir-208a] (puzzle: Sensor for hsa-mir-208a) | 23 | 14.6 | 24.7 |  |  | 
12 | AUAAAACAUGAGGAUCACCCAUGUAGACACGAUGGAGGAUAUACUAGAUCGAAAGAUCUAGUAGAAGGCCGACGUA [Mat - Same State 1 - JL mod - D95] (Eterna round: R96, puzzle: Same State 1) |  |  |  | 21.8 | 15.6 | 19.7
13 | AUAAAACAUGAGGAUCACCCAUGUAGACGGAGAGCCGUCACAUAGGAUAUAGCCAGCGGUGUUGGCUAGAAGGGUGGUAGAAAA [Lavezaer] (Eterna round: R96, puzzle: Same State NG 3) |  |  |  | 59.8 | 78.1 | 130
14 | AUAAAACAUGAGGAUCACCCAUGUCAACAAAGUCGAGGAUAUGGGCAUAUAAAAUAAGAACCAGAAGGCGAAUAAU [salish99_ss1_r3_026] (puzzle: Same State 1) | 32.2 | 265 | 230 |  |  | 
15 | AUAACCCGUGCUAAGGAUAUGCGUACUCCUACAUGAGGAUCACCCAUGUCCCGCCGAAAAGGAAGGCAGAAGGUAGCACGGGCCG [Lasoleri] (puzzle: Same State 2) | 45.7 | 84.9 | 126 |  |  | 
16 | AUAAGGCAAGCUUUUUUCUCGUAGUGUAAACAUGAGGAUCACCCAUGUGCCCACCCUGGAUCUUUGGAUCGCGGAAC [Raxesori] (Eterna round: R96, puzzle: Sensor for hsa-mir-208a) |  |  |  | 103 | 21.8 | 90.5
17 | AUAAGGCAAGCUUUUUUCUCGUAGUGUAAACAUGAGGAUCACCCAUGUGCCCACCCUGGAUCUUUGGAUCGCGGAAC [Raxesori] (puzzle: Sensor for hsa-mir-208a) | 83.6 | 27.1 | 104 |  |  | 
18 | AUAAGUUUGAUGCUCGUCUCUCCGUACAAACAUGAGGAUCACCCAUGUGGUCGGGAAGUAGCCCGGCCGGUAUGGCC [Atusri] (puzzle: Sensor for hsa-mir-208a) | 16.7 | 14.1 | 15.8 |  |  | 
19 | AUAGUUAGCGAAGGAUAUGGGAAAGGAAGUGUACCAGAAGGUCGGCUACUGGGCUUACAUGAGGAUCACCCAUGUCCCGGUAGC [PowerStrip SSNG 1.13] (Eterna round: R96, puzzle: Same State NG 1) |  |  |  | 10.1 | 9.15 | 12.2
20 | AUAGUUGCCGAAGGAUAUGAUGAGGAUCACCCAUCAGAAGGUUGGCUAUUGGGUGGACAUGAGGAUCACCCAUGUUCUUUGGUA (Eterna round: R96, puzzle: Same State NG 1) |  |  |  | 64.2 | 107 | 140
21 | AUAGUUGCCGAAGGAUAUGAUGAUGAUCACACAUCAGAAGGUCGGCUAUUGGGUGGACAUGAGGAUCACCCGUGUUCUUUGGUC (Eterna round: R96, puzzle: Same State NG 1) |  |  |  | 96.1 | 79.5 | 103
22 | AUAUAACAUGAGGAUCACCCAUGUCUCUAAAGUCGAGGAUAUGGGCAGGUUAUAUCCGAACCAGAAGGCGAAUUAU [SS1 Teenbexe 5] (puzzle: Same State 1) | 56.3 | 239 | 322 |  |  | 
23 | AUCAAAUACCUAGGAUAUAGUACACACAGCGGGCUAGAAGGAGGCGACCACGCUGACAUGAGGAUCACCCAUGUCCAACAGGAU [Eternabot solution 19] (Eterna round: R96, puzzle: Same State NG 1) |  |  |  | 48.9 | 37.8 | 52.8
24 | AUCAAUCUAUCUCAGGAUAUCAUGUCAAAGACAUGAGGAUCACCCAUGUACCAGGAAACUGGUUAUGAGAAGGGAGAUAGAUUGA [Mat - Same State 2 - Mod - D30] (puzzle: Same State 2) | 56.2 | 158 | 53.2 |  |  | 
25 | AUCCGGAAGCGAGGAUAUGCAGAGGAUCACCCUGCAGAAGGCGCAAAAGCGAGGAUAUGCAGAGGAUCACCCUGCAGAAGGCGC [pwkr ssNG DX.28] (Eterna round: R96, puzzle: Same State NG 1) |  |  |  | 14 | 12.6 | 42.1
26 | AUGGAGACCGGAGGAUAUGGACCAACAAUCGGUCCAGAAGGCUGCCCAUGGUAUACAUGAGGAUCACCCAUGUGGCCGCGGAGA [Eternabot solution 13] (Eterna round: R96, puzzle: Same State NG 1) |  |  |  | 65.8 | 69.2 | 102
27 | AUUAUACAUGAGGAUCACCCAUGUCAAUGUAGUCGAGGAUAUGGGUUGCUAUGAGGCGUACUAGAAGGCGAGGAGA [Mat - Same State 1 - Mod of JL - D17] (puzzle: Same State 1) | 61.5 | 99.9 | 82.8 |  |  | 
